The target in this assay is Ryanodine receptor 1 (RyR1) (rabbit (endogenous in skeletal muscle), UniProt P11716). As to the kind of experiment: cryo-EM structure.
Chain of Ryanodine receptor 1 (RyR1) (P11716 whole entry): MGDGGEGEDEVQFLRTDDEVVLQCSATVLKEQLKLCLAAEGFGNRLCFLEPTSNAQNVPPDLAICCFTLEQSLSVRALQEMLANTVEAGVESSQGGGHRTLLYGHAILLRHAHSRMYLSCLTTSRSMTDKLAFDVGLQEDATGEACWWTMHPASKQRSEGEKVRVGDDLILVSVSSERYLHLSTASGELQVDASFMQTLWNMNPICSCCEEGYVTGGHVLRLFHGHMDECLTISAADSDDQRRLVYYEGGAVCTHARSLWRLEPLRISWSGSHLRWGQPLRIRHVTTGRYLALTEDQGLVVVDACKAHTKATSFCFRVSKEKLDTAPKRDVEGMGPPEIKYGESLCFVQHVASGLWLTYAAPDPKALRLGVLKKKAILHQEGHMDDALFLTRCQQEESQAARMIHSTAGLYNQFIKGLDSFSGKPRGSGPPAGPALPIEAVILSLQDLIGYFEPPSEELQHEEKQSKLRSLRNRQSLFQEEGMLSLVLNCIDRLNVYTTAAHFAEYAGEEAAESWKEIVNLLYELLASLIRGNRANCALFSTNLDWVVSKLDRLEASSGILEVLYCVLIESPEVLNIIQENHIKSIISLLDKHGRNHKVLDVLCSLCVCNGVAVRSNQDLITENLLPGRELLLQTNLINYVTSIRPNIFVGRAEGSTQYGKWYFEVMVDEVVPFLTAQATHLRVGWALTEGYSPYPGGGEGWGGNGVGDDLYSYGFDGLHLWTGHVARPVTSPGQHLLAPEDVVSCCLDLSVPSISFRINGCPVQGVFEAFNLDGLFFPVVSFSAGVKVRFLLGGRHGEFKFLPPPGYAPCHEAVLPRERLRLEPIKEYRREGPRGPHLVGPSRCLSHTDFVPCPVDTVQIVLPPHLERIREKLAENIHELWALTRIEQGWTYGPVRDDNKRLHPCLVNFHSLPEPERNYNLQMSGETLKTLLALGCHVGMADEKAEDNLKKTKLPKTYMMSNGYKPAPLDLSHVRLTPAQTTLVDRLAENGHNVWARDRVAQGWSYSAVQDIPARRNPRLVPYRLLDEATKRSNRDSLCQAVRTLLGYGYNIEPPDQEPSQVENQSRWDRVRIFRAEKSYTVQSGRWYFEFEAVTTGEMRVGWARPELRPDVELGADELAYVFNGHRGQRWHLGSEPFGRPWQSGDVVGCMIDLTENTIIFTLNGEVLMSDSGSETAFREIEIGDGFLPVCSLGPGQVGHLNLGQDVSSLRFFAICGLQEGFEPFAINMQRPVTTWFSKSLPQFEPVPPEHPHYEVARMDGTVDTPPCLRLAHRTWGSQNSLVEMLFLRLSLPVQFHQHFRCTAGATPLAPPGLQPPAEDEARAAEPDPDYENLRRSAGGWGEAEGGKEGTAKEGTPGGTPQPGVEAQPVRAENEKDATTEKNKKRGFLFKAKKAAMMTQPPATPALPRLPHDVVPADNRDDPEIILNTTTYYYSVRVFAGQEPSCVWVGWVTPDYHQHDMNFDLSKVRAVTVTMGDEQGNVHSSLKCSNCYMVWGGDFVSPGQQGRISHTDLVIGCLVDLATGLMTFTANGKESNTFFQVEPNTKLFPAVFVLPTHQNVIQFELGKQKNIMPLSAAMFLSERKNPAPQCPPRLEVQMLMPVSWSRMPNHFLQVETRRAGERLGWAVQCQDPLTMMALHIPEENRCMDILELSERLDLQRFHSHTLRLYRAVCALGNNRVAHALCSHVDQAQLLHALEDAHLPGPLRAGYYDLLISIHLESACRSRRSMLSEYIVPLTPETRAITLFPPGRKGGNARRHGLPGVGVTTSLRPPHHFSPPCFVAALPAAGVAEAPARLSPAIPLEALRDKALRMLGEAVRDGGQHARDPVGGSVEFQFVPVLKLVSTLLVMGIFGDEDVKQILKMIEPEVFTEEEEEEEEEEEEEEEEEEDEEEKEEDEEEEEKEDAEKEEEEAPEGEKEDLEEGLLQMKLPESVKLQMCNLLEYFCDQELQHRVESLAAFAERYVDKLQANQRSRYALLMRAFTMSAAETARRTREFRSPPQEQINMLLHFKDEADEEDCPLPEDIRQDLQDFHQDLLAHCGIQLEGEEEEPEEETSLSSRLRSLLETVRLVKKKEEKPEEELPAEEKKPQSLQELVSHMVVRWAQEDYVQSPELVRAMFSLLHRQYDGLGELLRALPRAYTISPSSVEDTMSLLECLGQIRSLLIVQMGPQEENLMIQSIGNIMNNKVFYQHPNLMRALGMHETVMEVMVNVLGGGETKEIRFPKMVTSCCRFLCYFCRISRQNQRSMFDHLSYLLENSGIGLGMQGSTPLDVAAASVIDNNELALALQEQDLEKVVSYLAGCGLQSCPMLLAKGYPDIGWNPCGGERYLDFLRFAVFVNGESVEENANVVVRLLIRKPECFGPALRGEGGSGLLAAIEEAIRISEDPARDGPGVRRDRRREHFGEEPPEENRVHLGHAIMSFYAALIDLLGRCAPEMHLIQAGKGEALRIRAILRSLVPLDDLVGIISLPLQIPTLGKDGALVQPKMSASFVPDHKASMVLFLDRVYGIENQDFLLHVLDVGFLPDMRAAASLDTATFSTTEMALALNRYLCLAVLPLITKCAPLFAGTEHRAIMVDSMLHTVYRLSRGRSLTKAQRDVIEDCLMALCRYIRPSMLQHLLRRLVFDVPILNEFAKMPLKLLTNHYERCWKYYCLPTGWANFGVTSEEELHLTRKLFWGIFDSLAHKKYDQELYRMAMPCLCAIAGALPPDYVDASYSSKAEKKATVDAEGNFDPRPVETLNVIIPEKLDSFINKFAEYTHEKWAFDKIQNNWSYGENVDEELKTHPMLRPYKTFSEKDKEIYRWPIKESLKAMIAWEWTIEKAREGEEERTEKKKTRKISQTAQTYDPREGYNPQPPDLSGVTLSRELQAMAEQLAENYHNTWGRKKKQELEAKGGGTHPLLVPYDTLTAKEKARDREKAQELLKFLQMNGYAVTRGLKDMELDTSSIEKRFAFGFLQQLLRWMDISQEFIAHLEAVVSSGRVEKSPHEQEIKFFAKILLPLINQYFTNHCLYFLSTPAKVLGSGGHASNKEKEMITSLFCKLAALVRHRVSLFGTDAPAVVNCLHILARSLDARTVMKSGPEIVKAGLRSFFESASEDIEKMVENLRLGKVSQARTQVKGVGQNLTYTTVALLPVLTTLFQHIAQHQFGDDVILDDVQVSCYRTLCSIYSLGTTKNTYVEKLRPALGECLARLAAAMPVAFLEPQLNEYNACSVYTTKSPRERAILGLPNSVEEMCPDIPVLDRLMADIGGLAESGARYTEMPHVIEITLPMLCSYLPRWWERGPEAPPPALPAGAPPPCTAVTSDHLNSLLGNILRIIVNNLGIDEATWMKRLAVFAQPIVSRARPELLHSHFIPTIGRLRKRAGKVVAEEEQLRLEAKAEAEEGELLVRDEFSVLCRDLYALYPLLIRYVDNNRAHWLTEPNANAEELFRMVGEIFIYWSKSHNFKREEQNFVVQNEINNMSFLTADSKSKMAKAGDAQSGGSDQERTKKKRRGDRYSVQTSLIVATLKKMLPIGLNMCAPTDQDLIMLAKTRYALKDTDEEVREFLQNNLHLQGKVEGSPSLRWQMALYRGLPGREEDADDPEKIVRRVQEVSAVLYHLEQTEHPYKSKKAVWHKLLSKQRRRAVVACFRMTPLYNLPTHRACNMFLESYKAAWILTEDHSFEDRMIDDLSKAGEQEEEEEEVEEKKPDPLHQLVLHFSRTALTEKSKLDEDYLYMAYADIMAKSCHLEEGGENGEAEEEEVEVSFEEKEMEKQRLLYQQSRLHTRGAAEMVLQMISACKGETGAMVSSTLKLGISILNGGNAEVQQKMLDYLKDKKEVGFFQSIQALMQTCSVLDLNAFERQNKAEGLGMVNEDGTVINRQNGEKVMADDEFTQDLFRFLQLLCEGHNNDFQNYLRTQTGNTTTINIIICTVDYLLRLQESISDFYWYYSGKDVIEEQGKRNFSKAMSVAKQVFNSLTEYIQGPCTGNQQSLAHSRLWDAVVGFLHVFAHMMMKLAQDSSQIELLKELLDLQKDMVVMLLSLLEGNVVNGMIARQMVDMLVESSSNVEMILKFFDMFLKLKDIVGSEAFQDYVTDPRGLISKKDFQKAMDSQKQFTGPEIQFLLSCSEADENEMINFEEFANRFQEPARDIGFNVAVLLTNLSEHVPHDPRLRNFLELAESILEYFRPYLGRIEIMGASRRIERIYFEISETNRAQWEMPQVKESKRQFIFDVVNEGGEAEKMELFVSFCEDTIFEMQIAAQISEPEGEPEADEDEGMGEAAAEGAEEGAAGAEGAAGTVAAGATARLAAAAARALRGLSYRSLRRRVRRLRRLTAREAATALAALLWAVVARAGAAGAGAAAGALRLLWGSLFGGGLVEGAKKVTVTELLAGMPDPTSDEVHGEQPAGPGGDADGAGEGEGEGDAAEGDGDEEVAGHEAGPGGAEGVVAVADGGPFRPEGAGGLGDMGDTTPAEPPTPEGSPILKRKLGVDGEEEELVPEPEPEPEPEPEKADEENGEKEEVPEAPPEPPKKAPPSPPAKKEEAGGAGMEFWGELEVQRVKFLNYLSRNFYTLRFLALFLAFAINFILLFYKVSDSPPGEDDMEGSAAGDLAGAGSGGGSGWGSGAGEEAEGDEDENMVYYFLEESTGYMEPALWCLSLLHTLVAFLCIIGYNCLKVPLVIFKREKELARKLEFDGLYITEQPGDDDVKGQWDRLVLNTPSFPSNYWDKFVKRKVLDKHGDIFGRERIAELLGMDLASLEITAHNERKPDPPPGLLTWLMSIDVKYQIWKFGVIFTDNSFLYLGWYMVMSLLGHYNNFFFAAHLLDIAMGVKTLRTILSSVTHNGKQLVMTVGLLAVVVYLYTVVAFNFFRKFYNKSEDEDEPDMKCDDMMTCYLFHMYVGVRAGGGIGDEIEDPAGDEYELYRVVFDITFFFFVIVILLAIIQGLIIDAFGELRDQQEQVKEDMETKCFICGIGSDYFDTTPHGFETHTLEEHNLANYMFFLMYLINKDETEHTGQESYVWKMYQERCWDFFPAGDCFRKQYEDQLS

B1: RyR-specific nanobody Nb9657 (VHH)
VHH: QVQLQESGGGLMQAGGSLRLSCTASGSIFSINSMGWYRQAPGKQRELVATITSGNSINYADSVKGRFTISRDNAKNTVYLQMNSLKPEDTAVYYCNADRVPNGYNPWGTPNDEYDYWGQGTQVTVSS
B1: the binding result was “binds”.

These data come from article doi:10.1101/2024.12.20.629683 (bioRxiv, 2024).
